Patent CN107827981A (SHENZHEN GUOCHUANG NANOMETER ANTIBODY TECH CO LTD, dated 2018)

Molecular target: T1, 重组PE免疫毒素 (recombinant Pseudomonas exotoxin A, partial sequence) (Pseudomonas aeruginosa (绿脓杆菌), UniProt P11439 173-638)
T1 construct: also called 重组PE抗原; 重组蛋白PE
T1 sequence: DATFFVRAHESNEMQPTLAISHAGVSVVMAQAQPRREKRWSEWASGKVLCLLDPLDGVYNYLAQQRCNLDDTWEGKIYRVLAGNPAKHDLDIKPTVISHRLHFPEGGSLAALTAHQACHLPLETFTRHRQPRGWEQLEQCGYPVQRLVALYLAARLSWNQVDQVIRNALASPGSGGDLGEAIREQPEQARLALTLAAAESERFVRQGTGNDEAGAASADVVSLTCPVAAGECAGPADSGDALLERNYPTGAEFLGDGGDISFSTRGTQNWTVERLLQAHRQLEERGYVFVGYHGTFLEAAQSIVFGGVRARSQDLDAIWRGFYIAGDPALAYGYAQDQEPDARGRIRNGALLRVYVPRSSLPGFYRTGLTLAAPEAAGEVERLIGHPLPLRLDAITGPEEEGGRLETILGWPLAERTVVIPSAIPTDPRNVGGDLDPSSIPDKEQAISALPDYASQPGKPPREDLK
Assay: SPR, Biacore T100, 1:1 binding fit

B1: 纳米抗体VHH-PE 2 (VHH)
chain: ESGGGLVQAGGSLRLSGVASRRTFCNYLDAMGWLSLVTGKERELVAHITGNRGDVMYLDSVKAGSTISRVKTNSTVYLQMNSMKPEDTHVYYWAPKATGFFSPKEEEKYNWWGQGTQ
- Kd: 4.85 nM

B2: 纳米抗体VHH-PE 1 (VHH)
VHH: ESGGGLVQAGGSLRLSCAASGRTFSSTGHTFSSYAMGWFRQTPGKEREFVAAISWSGTSTYYADSVKGRFTISRDNAKNTVYLQMNSLKPEDTAVYYCAARFWDYGLGSSDLKSPREYDYWGQGTQ
- Kd: 12.2 nM
